In patent publication US8461305B2, “L-fucose α1→6 specific lectin” (J-Oil Mills, Inc., priority 2008, dated 2013):

Legend:
[1] = frontal affinity chromatography (FAC), association constant to PA sugar chains having other L-fucose; assay type: binding; settings: 25 degrees C.
In short: (§1)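 Lectin coupled via primary amines to NHS-activated sepharose in a miniature column, run in TBS (pH 7.4) at 0.125 ml/min and 25 degrees C. PA sugar chains (3.75 nM or 7.5 nM) applied in excess, with elution monitored by fluorescence (ex 310/em 380 nm). Ka calculated from front-end delay (V−Vo) versus PA rhamnose and effective ligand amount (Bt).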

[2] = frontal affinity chromatography (FAC), association constant to PA sugar chains without L-fucose; assay type: binding; settings: 25 degrees C.
In short: as §1

B1: Lens culinaris agglutinin (protein)
chain 1: TETTSFSITKFSPDQKNLIFQGDGYTTKGKLTLTKAVKSTVGRALYSTPIHIWDRDTGNVANFVTSFTFVIDAPSSYNVADEFTFFIAPVDTKPQTGGGYLGVFNSKEYDKTSQTVAVEFDTFYNAAWDPSNKERHIGIDVNSIKSVNTKSWNLQNGERANVVIAFNAATNVLTVTLTYP
chain 2: VTSYTLNEVVPLKDVVPEWVRIGFSATTGAEFAAHEVHSWSFHSELGGTSSS
association constant Ka ([1]; Sugar chain No. 419): <1000 M⁻¹
association constant Ka ([1]; Sugar chain No. 420): <1000 M⁻¹
association constant Ka ([1]; Sugar chain No. 718): <1000 M⁻¹
association constant Ka ([1]; Sugar chain No. 719): <1000 M⁻¹
association constant Ka ([1]; Sugar chain No. 720): <1000 M⁻¹
association constant Ka ([1]; Sugar chain No. 721): <1000 M⁻¹
association constant Ka ([1]; Sugar chain No. 722): <1000 M⁻¹
association constant Ka ([1]; Sugar chain No. 723): <1000 M⁻¹
association constant Ka ([1]; Sugar chain No. 726): <1000 M⁻¹
association constant Ka ([1]; Sugar chain No. 727): <1000 M⁻¹
association constant Ka ([1]; Sugar chain No. 728 (as listed in Table 5/12)): <1000 M⁻¹
association constant Ka ([1]; Sugar chain No. 729): <1000 M⁻¹
association constant Ka ([1]; Sugar chain No. 730): <1000 M⁻¹
association constant Ka ([1]; Sugar chain No. 731): <1000 M⁻¹
association constant Ka ([1]; Sugar chain No. 739): <1000 M⁻¹
association constant Ka ([1]; Sugar chain No. 909): <1000 M⁻¹
association constant Ka ([1]; Sugar chain No. 910): <1000 M⁻¹
association constant Ka ([1]; Sugar chain No. 931): <1000 M⁻¹
association constant Ka ([1]; Sugar chain No. 932): <1000 M⁻¹
association constant Ka ([1]; Sugar chain No. 933): <1000 M⁻¹
association constant Ka ([2]; Sugar chain No. 001): <1000 M⁻¹
association constant Ka ([2]; Sugar chain No. 002): <1000 M⁻¹
association constant Ka ([2]; Sugar chain No. 003): 7200 M⁻¹
association constant Ka ([2]; Sugar chain No. 004): <1000 M⁻¹
association constant Ka ([2]; Sugar chain No. 005): <1000 M⁻¹
association constant Ka ([2]; Sugar chain No. 006): 14000 M⁻¹
association constant Ka ([2]; Sugar chain No. 007): <1000 M⁻¹
association constant Ka ([2]; Sugar chain No. 008): 18000 M⁻¹
association constant Ka ([2]; Sugar chain No. 009): 18000 M⁻¹
association constant Ka ([2]; Sugar chain No. 010): 13000 M⁻¹
association constant Ka ([2]; Sugar chain No. 011): 14000 M⁻¹
association constant Ka ([2]; Sugar chain No. 012): 25000 M⁻¹
association constant Ka ([2]; Sugar chain No. 013): 17000 M⁻¹
association constant Ka ([2]; Sugar chain No. 014): 17000 M⁻¹
association constant Ka ([2]; Sugar chain No. 101): <1000 M⁻¹
association constant Ka ([2]; Sugar chain No. 103): <1000 M⁻¹
association constant Ka ([2]; Sugar chain No. 104): <1000 M⁻¹
association constant Ka ([2]; Sugar chain No. 105): <1000 M⁻¹
association constant Ka ([2]; Sugar chain No. 107): <1000 M⁻¹
association constant Ka ([2]; Sugar chain No. 108): <1000 M⁻¹
association constant Ka ([2]; Sugar chain No. 301): <1000 M⁻¹
association constant Ka ([2]; Sugar chain No. 304): <1000 M⁻¹
association constant Ka ([2]; Sugar chain No. 305): <1000 M⁻¹
association constant Ka ([2]; Sugar chain No. 307): <1000 M⁻¹
association constant Ka ([2]; Sugar chain No. 308): <1000 M⁻¹
association constant Ka ([2]; Sugar chain No. 313): <1000 M⁻¹
association constant Ka ([2]; Sugar chain No. 314): <1000 M⁻¹
association constant Ka ([2]; Sugar chain No. 323): <1000 M⁻¹
association constant Ka ([2]; Sugar chain No. 501): <1000 M⁻¹
association constant Ka ([2]; Sugar chain No. 502): <1000 M⁻¹
association constant Ka ([2]; Sugar chain No. 503): <1000 M⁻¹
association constant Ka ([2]; Sugar chain No. 504): <1000 M⁻¹
association constant Ka ([2]; Sugar chain No. 701): <1000 M⁻¹
association constant Ka ([2]; Sugar chain No. 702): <1000 M⁻¹
association constant Ka ([2]; Sugar chain No. 703): <1000 M⁻¹
association constant Ka ([2]; Sugar chain No. 704): <1000 M⁻¹
association constant Ka ([2]; Sugar chain No. 705): <1000 M⁻¹
association constant Ka ([2]; Sugar chain No. 706): <1000 M⁻¹
association constant Ka ([2]; Sugar chain No. 707): <1000 M⁻¹
association constant Ka ([2]; Sugar chain No. 708): <1000 M⁻¹
association constant Ka ([2]; Sugar chain No. 709): <1000 M⁻¹
association constant Ka ([2]; Sugar chain No. 710): <1000 M⁻¹
association constant Ka ([2]; Sugar chain No. 711): <1000 M⁻¹
association constant Ka ([2]; Sugar chain No. 712): <1000 M⁻¹
association constant Ka ([2]; Sugar chain No. 713): <1000 M⁻¹
association constant Ka ([2]; Sugar chain No. 715): <1000 M⁻¹
association constant Ka ([2]; Sugar chain No. 716): <1000 M⁻¹
association constant Ka ([2]; Sugar chain No. 717): <1000 M⁻¹
association constant Ka ([2]; Sugar chain No. 724): <1000 M⁻¹
association constant Ka ([2]; Sugar chain No. 725): <1000 M⁻¹
association constant Ka ([2]; Sugar chain No. 728 (as listed in Table 7)): <1000 M⁻¹
association constant Ka ([2]; Sugar chain No. 732): <1000 M⁻¹
association constant Ka ([2]; Sugar chain No. 733): <1000 M⁻¹
association constant Ka ([2]; Sugar chain No. 734): <1000 M⁻¹
association constant Ka ([2]; Sugar chain No. 735): <1000 M⁻¹
association constant Ka ([2]; Sugar chain No. 736): <1000 M⁻¹
association constant Ka ([2]; Sugar chain No. 737): <1000 M⁻¹
association constant Ka ([2]; Sugar chain No. 738): <1000 M⁻¹
association constant Ka ([2]; Sugar chain No. 901): <1000 M⁻¹
association constant Ka ([2]; Sugar chain No. 902): <1000 M⁻¹
association constant Ka ([2]; Sugar chain No. 903): <1000 M⁻¹
association constant Ka ([2]; Sugar chain No. 905): <1000 M⁻¹
association constant Ka ([2]; Sugar chain No. 906): <1000 M⁻¹
association constant Ka ([2]; Sugar chain No. 907): <1000 M⁻¹
